Results published in article PMC11870076, “Multiple carbamylation events are required for differential modulation of Cx26 hemichannels and gap junctions by CO2” (The Journal of Physiology, 2025).

Target: the molecule itself
Assay: cryo-EM structure; GgCx26 in 0.03% DDM, 90 mmHg PCO2 aCSF buffer gassed with 15% CO2 to pH ~7.4, 3.4 mg/ml; reconstructions with D6 and C6 symmetry

B1: chicken connexin 26 (GgCx26) gap junction channel (natural protein)
chain: not shown
notes: DNA encoding GgCx26 lacking a stop codon was amplified from a GgCx26-mCherry construct, forward primer at the start ATG; in the model residues before Val9, 106-124 and after Leu215 are not built; Dodecameric gap junction channel (two docked hexamers); thrombin-cleavable C-terminal His6 tag removed with thrombin before SEC; also called chicken Cx26; Chicken (Gallus gallus) Cx26; source: Sf9 cells …
- stoichiometry N: 12 subunits
